Laboratory results as given in paper PMC11209835 (Cell metabolism, 2024).
One block for each binder: values may come before it.

Molecular target: T1, Flag-HA-tagged ALOX12, purified (UniProt P18054 1-663)
T1 sequence (looked up): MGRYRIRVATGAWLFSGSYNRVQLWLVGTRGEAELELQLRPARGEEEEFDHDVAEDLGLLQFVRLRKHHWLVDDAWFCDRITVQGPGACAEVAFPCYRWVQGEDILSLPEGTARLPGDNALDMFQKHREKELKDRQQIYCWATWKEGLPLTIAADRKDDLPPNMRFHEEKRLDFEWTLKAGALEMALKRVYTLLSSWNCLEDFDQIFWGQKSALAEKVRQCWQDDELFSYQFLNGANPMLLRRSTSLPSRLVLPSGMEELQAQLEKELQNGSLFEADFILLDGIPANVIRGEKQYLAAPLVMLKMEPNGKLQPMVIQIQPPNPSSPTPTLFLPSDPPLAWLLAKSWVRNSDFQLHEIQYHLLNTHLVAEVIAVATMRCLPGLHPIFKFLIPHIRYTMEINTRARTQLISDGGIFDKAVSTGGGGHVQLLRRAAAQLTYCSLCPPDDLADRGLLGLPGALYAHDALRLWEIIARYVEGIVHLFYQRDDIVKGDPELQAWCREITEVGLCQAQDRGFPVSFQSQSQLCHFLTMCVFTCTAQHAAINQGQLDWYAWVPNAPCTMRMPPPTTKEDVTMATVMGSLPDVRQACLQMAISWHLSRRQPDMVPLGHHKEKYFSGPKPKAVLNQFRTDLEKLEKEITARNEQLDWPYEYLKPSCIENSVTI
Assay: pull-down

binding result: binds
B1: GST-PHLDA2 Full-length (amino acids 1-152) (natural protein, human, UniProt Q53GA4 1-152, looked up)
chain: MKSPDEVLREGELEKRSDSLFQLWKKKRGVLTSDRLSLFPASPRARPKELRFHSILKVDCVERTGKYVYFTIVTTDHKEIDFRCAGESCWNAAIALALIDFQNRRALQDFRSRQERTAPAAPAEDAVAAAAAAPSEPSEPSRPSPQPKPRTP

binding result: binds
B2: GST-PHLDA2-PH (amino acids 7-101) (domain or fragment, human, UniProt Q53GA4 7-101, looked up)
chain: VLREGELEKRSDSLFQLWKKKRGVLTSDRLSLFPASPRARPKELRFHSILKVDCVERTGKYVYFTIVTTDHKEIDFRCAGESCWNAAIALALIDF
